The text below walks through data of the RNAGym collection of RNA variant scans (doi:10.1073/pnas.2313332121).

The chains are these.
B1: TPR t1 (parent)
chain: GACCAAUCUGCCCUCAGAGCUCGAGAACAUCUUCGGAUGCAGAGGAGGCAGGCUUCGGUGGCGCGAUAGCGCCAACGUCCUCAACCUCCAAUGCAUCCCACCACAUGAUGAUGCCUGAAGAGCCUUGGUUUUUUG

Variants of B1 are the subject of the data set. Put plainly: polymerase ribozyme fitness, log enrichment relative to wild type (log ratio); higher = more active; in vitro selection for triplet polymerase activity. Summed up:
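Mutant libraries of both subunits of a heterodimeric triplet polymerase ribozyme were PCR-built, transcribed, and selected once in triplicate, with frozen incubation at −7 °C and capture of gel-excised extended constructs on streptavidin beads before RT-PCR. Illumina sequencing of input and output libraries was filtered to genotypes with ≥10 input reads and ≥1 read per output. Fitness is the logarithm of genotype enrichment over wild-type enrichment, using inverse-variance-weighted replicate averages. The logarithm is base 2.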
Take C15G G113C: the “polymerase ribozyme fitness (log ratio)” value was -6.27. As for G48A C73A U92A C115U, the “polymerase ribozyme fitness (log ratio)” value was -5.26. The figure for U7G A18U is -0.713. In the case of A43U C49A C89U A90C U133G, the “polymerase ribozyme fitness (log ratio)” value was -1.26. In the case of A16U C123U, the “polymerase ribozyme fitness (log ratio)” value is 0.19. With G39U C64U, the “polymerase ribozyme fitness (log ratio)” value is -0.207. The figure for C62U C123U is 1.47; for A74U C102U it is -2.82; for G19C C40A C85U U112A it is -2.1. The figure for G71A A119G is -0.102; for A46U G107C it is -6.11. The figure for C28A G63A is -5.86. Turning to U78C C88U C123G U125A, the “polymerase ribozyme fitness (log ratio)” value turned out to be 1.82. As for C13U C104U, the “polymerase ribozyme fitness (log ratio)” value is -0.259. For C72U G120U, the “polymerase ribozyme fitness (log ratio)” value was -0.256. Turning to A27U A29G G63C G127C, the “polymerase ribozyme fitness (log ratio)” value is -6.04. The figure for G47A C56U is 0.000278. The figure for U59G G122A is -1.35; for A43U G63A A95G G122U it is -4.37; for C8A C123A C124U G127U it is 0.694. For the variant C12A G63C C102G C104U G113A, the “polymerase ribozyme fitness (log ratio)” value is -7.42. Consider C34A U78C, for which the “polymerase ribozyme fitness (log ratio)” value is -2.79. As to G61A G128U, the “polymerase ribozyme fitness (log ratio)” value was -2.15. For the variant A29C G36U G45U, the “polymerase ribozyme fitness (log ratio)” value is -4.64. As to C70G G127U, the “polymerase ribozyme fitness (log ratio)” value is -3.25. In the case of C12U A111G it was 0.95. As for C49A A75U C85G, the “polymerase ribozyme fitness (log ratio)” value is -1.4. The figure for C79U C80U U116C is -4.27; for C70A C82A U92C it is -3.72; for C70U U78G U116G it is -2.23. In the case of C15U G47A G113C A121C it was -4.25; in that of A37G C70G, -3.43. In the case of G10U C12A C49U A118U U131G it was -1.34.

On to C20U C28G G69C G110U, for which the “polymerase ribozyme fitness (log ratio)” value is -5.16. In the case of C20A it was -2.6; in that of U21G C53U C64U C79A, -3.11. The figure for A6G G61C C79A U112G C114U is -6.62; for C85U G120U it is 0.655; for U54G C114A it is -1.69. In the case of C34A G60A C115U it was -5.48. As to G113C U133A, the “polymerase ribozyme fitness (log ratio)” value was -2.13.

A41C C70U: the “polymerase ribozyme fitness (log ratio)” value is -2.04.

A41C C70G: the “polymerase ribozyme fitness (log ratio)” value was -3.91. In the case of C4A G36C G65U C104U A119G A121U G128U U129A it was -6.35. With G113U U129A, the “polymerase ribozyme fitness (log ratio)” value is -3.53. On to G120U G135C, for which the “polymerase ribozyme fitness (log ratio)” value is 1.16. As to C3G G47U G48C C82G C123U, the “polymerase ribozyme fitness (log ratio)” value is -1.92. In the case of C8G A46U G117C, the “polymerase ribozyme fitness (log ratio)” value is -1.21. In the case of A26U C94U it was -2.76; in that of C13A C15G A37U A103C, -6.73; in that of U21C A27U G36C A111U, -4.98. In the case of C56U C97A it was -4.36; in that of C12U C22U U59C C85G, -4.46.

In the case of C3A A29U, the “polymerase ribozyme fitness (log ratio)” value is -3.36. In the case of A2G C13U it was 0.291. C3A G36A C64U C123G: the “polymerase ribozyme fitness (log ratio)” value was -0.723. As for G58A U78G, the “polymerase ribozyme fitness (log ratio)” value is 0.00664. The figure for U59C U78G C104U G117A is -2.35; for A18U A75U C76G U129G it is -5.7; for A5G G36U A46U G60U A91G U106A it is -4.94. For the variant C13A G47U G63U, the “polymerase ribozyme fitness (log ratio)” value was -4.2.

Consider G69U C72A, for which the “polymerase ribozyme fitness (log ratio)” value was -2.5. The figure for C4G C12U C56A C70U A111C U126A is -3.03; for U7G C22U A68C G93U C115U A121G it is -5.51; for G25A C31U G63U G77U G117A C124U it is -7.34.

Turning to C70U C85U, the “polymerase ribozyme fitness (log ratio)” value was -0.917. In the case of C20U A91G, the “polymerase ribozyme fitness (log ratio)” value was -2.03. The figure for A18C A43U is 0.3; for C53G G57U G61A it is -0.189; for C40A U59A it is -1.29.

For the variant C15U A105U, the “polymerase ribozyme fitness (log ratio)” value is -3.42.

In the case of C70A C88U, the “polymerase ribozyme fitness (log ratio)” value is -1.26. In the case of C94A G110U it was -2.28. For the variant U96G U129C, the “polymerase ribozyme fitness (log ratio)” value is -0.569. With G19A C73U, the “polymerase ribozyme fitness (log ratio)” value was -2.61. The figure for G47C C53U is -0.348; for U14G C22U A29G C124G U129C it is -3.15. The figure for U21C C28U C72U is -1.89; for G51A C72G C79U it is -3.08; for G57A C94G it is -2.36.

With C22G A43U, the “polymerase ribozyme fitness (log ratio)” value was -3.99.

Take C11G C53U C80U C88A U112C: the “polymerase ribozyme fitness (log ratio)” value was determined as 0.738. Regarding G48U C53U G93C, the “polymerase ribozyme fitness (log ratio)” value is -1.66.

With C12A G77U C82U, the “polymerase ribozyme fitness (log ratio)” value is -1.87. In the case of G42A C114U it was -2.35. Regarding C31U C49A C123U C124U, the “polymerase ribozyme fitness (log ratio)” value is -4.12.

For the variant A6C G47A C123U U125A, the “polymerase ribozyme fitness (log ratio)” value is -0.223. For the variant G61C C76U, the “polymerase ribozyme fitness (log ratio)” value is -3.1.

With G63A G93A C97U U130A, the “polymerase ribozyme fitness (log ratio)” value is -2.59.

C12U G48A U131A: the “polymerase ribozyme fitness (log ratio)” value was -0.967. The figure for C15U C28U A68G G110A is -2.39; for C28G U54G C97U U130A U131C it is -3.57; for U87C C99A C101U U116C it is -6.81. As for C64U C99U, the “polymerase ribozyme fitness (log ratio)” value is -2.88. The figure for A74G U109G is -4.6; for U21A G135U it is -0.915. In the case of G63A G120A it was -0.19. The figure for U32A C70U C115G is -5.23. With A29G U32C A50U C73U, the “polymerase ribozyme fitness (log ratio)” value was -2.14. In the case of C8G A50C C72A G93A it was -0.538; in that of G69U C114A, -0.78. As to C4U A41U, the “polymerase ribozyme fitness (log ratio)” value was -1.8. The figure for U9A A37C G63C is -0.708; for A6G C62A it is -0.491. As to G17U U21G G47C C115A, the “polymerase ribozyme fitness (log ratio)” value is -1.81. Turning to G39C A50U G61A, the “polymerase ribozyme fitness (log ratio)” value is -1.4. In the case of G52U G77U G117U U126C it was -5.18; in that of C89A A121G, 1.44. Take G10C A43U U129C: the “polymerase ribozyme fitness (log ratio)” value is -3.15.

A75G C97U U131A: the “polymerase ribozyme fitness (log ratio)” value was -0.00214. The figure for C73U G110U G120A is -2.15; for A91G G117U it is -3.4; for C8G G107U C123G it is -2.76. Take U32A A74C C114G: the “polymerase ribozyme fitness (log ratio)” value is -4.4. Consider C13U G48A C98U G122A G128C G135U, for which the “polymerase ribozyme fitness (log ratio)” value is -1.66. In the case of C104A U112A it was 0.162. With A18U C62A, the “polymerase ribozyme fitness (log ratio)” value is -4.11. The figure for G17U G48U C115G G120A is -1.53; for U30A A111U it is -4.14; for G48A C82G it is -0.457. The figure for U14C C62U is -1.6; for U9C C72U it is 0.343; for C13U U32G U87C it is -7.09. In the case of A18U G113U C114U C124A U130C, the “polymerase ribozyme fitness (log ratio)” value is -2.93.

For the variant G52U G113U, the “polymerase ribozyme fitness (log ratio)” value is -3.87.

As to G117A U133A, the “polymerase ribozyme fitness (log ratio)” value was -1.2. Take G17U G48A A50U G61C G93A U106A: the “polymerase ribozyme fitness (log ratio)” value was -5.21.

As to G39A G57U C80A A121C, the “polymerase ribozyme fitness (log ratio)” value was 0.47. The figure for U78A A95C G113U U125G is -4.39; for C28U C80A it is -5.53; for A6U C12U C72U A83C G127U it is -0.0511. In the case of U7G G71U C97G G120U U132C it was -3.27.

As to G47A C72A, the “polymerase ribozyme fitness (log ratio)” value is -0.266. As for C8A G51U C53G U81G C114A, the “polymerase ribozyme fitness (log ratio)” value is -5.79.

U55G G61U C114U: the “polymerase ribozyme fitness (log ratio)” value is -1.66. The figure for C11U C12A U96C is -2.18; for C40G U112A it is 1.38. For the variant A37U A41U C88U, the “polymerase ribozyme fitness (log ratio)” value was -2.75. Consider C49U C70G, for which the “polymerase ribozyme fitness (log ratio)” value is -3.77. Turning to A6G C76A C79A G120C, the “polymerase ribozyme fitness (log ratio)” value is 0.0381. On to U9C C53A C123G, for which the “polymerase ribozyme fitness (log ratio)” value is 1.78.

Turning to C31A C56A C98A, the “polymerase ribozyme fitness (log ratio)” value was -5.09.

With A6U C56A C94A U106A C124A, the “polymerase ribozyme fitness (log ratio)” value was determined as 0.262.

C4G A41C G77A A95C: the “polymerase ribozyme fitness (log ratio)” value was -3.4. In the case of A5U G35C it was -4.38. The figure for C12G C13U is -0.223; for U96A G120C it is 0.228. As for G61A U81G A105U U112G, the “polymerase ribozyme fitness (log ratio)” value was -5.6. In the case of C62A U81G it was -5.64.

C11U G61A C88G C94G U130C: the “polymerase ribozyme fitness (log ratio)” value is -4.74. On to C49A C56A U131C U133A, for which the “polymerase ribozyme fitness (log ratio)” value is -0.929. In the case of U133C, the “polymerase ribozyme fitness (log ratio)” value was determined as 0.332. The figure for A24G A41C is -2.27; for A29U G52C C73G U129A it is -4.18; for A6U C12U C80U it is -0.107. Take A16U C79U G110A: the “polymerase ribozyme fitness (log ratio)” value was -2.61.

Take U14A G63A G93A: the “polymerase ribozyme fitness (log ratio)” value was -4.67.

G17U C62G A83U C123G: the “polymerase ribozyme fitness (log ratio)” value is -5.79. The figure for G52U U112A U126G is -0.97; for A18G U54A G77A U109G it is -3.13; for C22G G35C C64U it is -6.13.

Turning to G44U G52C C82G G113A C124U, the “polymerase ribozyme fitness (log ratio)” value is -3.3.

On to G45A G61C U81G, for which the “polymerase ribozyme fitness (log ratio)” value is -6.11. In the case of G63A U87G A111C, the “polymerase ribozyme fitness (log ratio)” value was -1.52. As for C8G A18U G52U A90C, the “polymerase ribozyme fitness (log ratio)” value was -1.7.

With C8G U87A, the “polymerase ribozyme fitness (log ratio)” value was determined as 0.833. In the case of G39A G60C G113C C115A it was -4.37.
